Measurements from patent US20090280138A1 (OXFORD BIOMEDICA UK, published 2009).

Assays:
[1] = target: T1, MHC class I molecule HLA-B*0702 (iTopia plate-bound monomer) (biotin (bound to streptavidin-coated plate)); test: iTopia off-rate assay, 37 C; fit R^2 0.04
T1 construct: Commercial iTopia system; also called B7
Description: (§1) The 9 mers were tested for Peptide Binding, Off Rate and Affinity using iTopia Epitope Discovery System in accordance with the manufacturer's instructions. Briefly, 96 well microtitre plates coated with MHC molecules representing different MHC alleles are used to identify candidate peptides. […] Determinations are performed in duplicate using an ELISA plate reader and included allele specific positive controls.
(§2) A one-phase exponential decay curve, with a plateau given equal to 0, was generated using GraphPad Prism® software, which calculated the t1/2 and goodness-of-fit, as measured by r², for each peptide.

[2] = target: T2, MHC class I molecule HLA-A*0201 (iTopia plate-bound monomer) (biotin (bound to streptavidin-coated plate)); test: iTopia off-rate assay, 37 C; fit R^2 0.83
T2 construct: also called A2
Description: as §1, §2

[3] = target: T3, MHC class I molecule HLA-A*0301 (iTopia plate-bound monomer) (biotin (bound to streptavidin-coated plate)); test: iTopia off-rate assay, 37 C; fit R^2 0.87
T3 construct: also called A3
Method in brief: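 Each t1/2 is derived by fitting a single-phase exponential decay, with the plateau set to zero, to peptide dissociation from plate-coated MHC. The same fit supplies r² for every peptide. Nonamers are measured in duplicate using an ELISA reader.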

B1: 5T4 9-mer peptide 187 VLYLNRKGI (peptide)
peptide: VLYLNRKGI
t½ half life [1]: 2.9 h
t½ half life [2]: 0.6 h
t½ half life [3]: 1.4 h
